Laboratory results taken from patent publication US20150344570A1 (published 2015).

T1: human FcγRIIb extracellular domain with C-terminal His tag (human, UniProt P31994 43-217)
T1 construct: extracellular domain; also called FcgRIIb; 2b; not shown: His tag attached to the C terminus
T1 sequence (looked up): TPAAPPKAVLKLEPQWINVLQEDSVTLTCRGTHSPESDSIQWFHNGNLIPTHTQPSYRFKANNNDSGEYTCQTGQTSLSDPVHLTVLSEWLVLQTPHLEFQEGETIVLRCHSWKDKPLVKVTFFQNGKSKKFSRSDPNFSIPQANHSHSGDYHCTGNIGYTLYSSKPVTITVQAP

B1: GpH7-A5/GpH7-B3 variant A327_12R/GpL16-k0 (antibody, human IgG1, kappa)
heavy 1: not shown
heavy 2: not shown
light: DIVMTQSPLSLPVTPGEPASISCQASESLVHSNRNTYLHWYLQKPGQSPQLLIYKVSNRFSGVPDRFSGSGSGTDFTLKISRVEAEDVGVYYCSQNTHVPPTFGQGTKVEIERTVAAPSVFIFPPSDEQLKSGTASVVCLLNNFYPREAKVQWKVDNALQSGNSQESVTEQDSKDSTYSLSSTLTLSKADYEKHKVYACEVTHQGLSSPVTKSFNRGEC
notes: He Ab: mutation in one H chain only; also called He Ab
B2: GpH7-A5/GpH7-B3 variant T335_09D/GpL16-k0 (He Ab) (antibody, human IgG1, kappa)
heavy 1: not shown
heavy 2: not shown
light: B1 light
notes: Anti-glypican-3 IgG1; mutation only in the GpH7-B3-derived H chain; also called T335D heterodimerized antibody
B3: GpH7-A5/GpH7-B3 variant S298_08L/GpL16-k0 (He Ab) (antibody, human IgG1, kappa)
heavy 1: not shown
heavy 2: not shown
light: B1 light
notes: Anti-glypican-3 IgG1; mutation only in the GpH7-B3-derived H chain; also called S298L heterodimerized antibody
B4: GpH7-A5/GpH7-B3 variant S337_10E/GpL16-k0 (He Ab) (antibody, human IgG1, kappa)
heavy 1: not shown
heavy 2: not shown
light: B1 light
notes: Anti-glypican-3 IgG1; mutation only in the GpH7-B3-derived H chain; also called S337E heterodimerized antibody
B5: GpH7-A5/GpH7-B3 variant S337_09D/GpL16-k0 (He Ab) (antibody, human IgG1, kappa)
heavy 1: not shown
heavy 2: not shown
light: B1 light
notes: Anti-glypican-3 IgG1; mutation only in the GpH7-B3-derived H chain; also called S337D heterodimerized antibody
B6: GpH7-A5/GpH7-B3 variant Y300_19Q/GpL16-k0 (He Ab) (antibody, human IgG1, kappa)
heavy 1: not shown
heavy 2: not shown
light: B1 light
notes: Anti-glypican-3 IgG1; mutation only in the GpH7-B3-derived H chain; also called Y300Q heterodimerized antibody
B7: GpH7-A5/GpH7-B3 variant S337_14T/GpL16-k0 (He Ab) (antibody, human IgG1, kappa)
heavy 1: not shown
heavy 2: not shown
light: B1 light
notes: Anti-glypican-3 IgG1; mutation only in the GpH7-B3-derived H chain; also called S337T heterodimerized antibody
B8: GpH7-A5/GpH7-B3 variant T335_08L/GpL16-k0 (He Ab) (antibody, human IgG1, kappa)
heavy 1: not shown
heavy 2: not shown
light: B1 light
notes: Anti-glypican-3 IgG1; mutation only in the GpH7-B3-derived H chain; also called T335L heterodimerized antibody
B9: GpH7-A5/GpH7-B3 variant T335_04F/GpL16-k0 (He Ab) (antibody, human IgG1, kappa)
heavy 1: not shown
heavy 2: not shown
light: B1 light
notes: Anti-glypican-3 IgG1; mutation only in the GpH7-B3-derived H chain; also called T335F heterodimerized antibody
B10: GpH7-B3 variant A327_09D/GpL16-k0 (antibody, human IgG1, kappa)
heavy: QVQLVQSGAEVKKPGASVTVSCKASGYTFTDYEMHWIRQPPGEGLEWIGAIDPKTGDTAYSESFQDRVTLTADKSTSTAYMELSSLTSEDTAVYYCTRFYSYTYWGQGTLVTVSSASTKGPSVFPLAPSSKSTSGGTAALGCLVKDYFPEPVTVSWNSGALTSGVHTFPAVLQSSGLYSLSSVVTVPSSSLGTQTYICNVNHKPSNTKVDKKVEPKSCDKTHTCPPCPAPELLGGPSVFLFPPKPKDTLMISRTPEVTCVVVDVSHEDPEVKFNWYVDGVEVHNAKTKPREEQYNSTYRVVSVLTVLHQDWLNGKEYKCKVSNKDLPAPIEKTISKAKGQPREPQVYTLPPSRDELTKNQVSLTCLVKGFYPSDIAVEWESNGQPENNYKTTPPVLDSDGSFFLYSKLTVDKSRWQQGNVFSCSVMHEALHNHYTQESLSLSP
light: B1 light
notes: also called Ho Ab A327_09D
B11: GpH7-B3 variant S337_07I/GpL16-k0 (antibody, human IgG1, kappa)
heavy: not shown
light: B1 light
notes: also called Ho Ab S337_07I
B12: GpH7-B3 variant T335_18N/GpL16-k0 (antibody, human IgG1, kappa)
heavy: not shown
light: B1 light
notes: also called Ho Ab T335_18N
B13: GpH7-B3 variant T335_20W/GpL16-k0 (antibody, human IgG1, kappa)
heavy: not shown
light: B1 light
notes: also called Ho Ab T335_20W
B14: GpH7-B3 variant S337_20W/GpL16-k0 (antibody, human IgG1, kappa)
heavy: not shown
light: B1 light
notes: also called Ho Ab S337_20W
B15: GpH7-B3 variant I336_06M/GpL16-k0 (antibody, human IgG1, kappa)
heavy: not shown
light: B1 light
notes: also called Ho Ab I336_06M
B16: GpH7-B3 variant V266_08L/GpL16-k0 (antibody, human IgG1, kappa)
heavy: not shown
light: B1 light
notes: also called Ho Ab V266_08L
B17: GpH7-B3 variant Y296_16H/GpL16-k0 (antibody, human IgG1, kappa)
heavy: not shown
light: B1 light
notes: also called Ho Ab Y296_16H
B18: GpH7-B3 variant K334_19Q/GpL16-k0 (antibody, human IgG1, kappa)
heavy: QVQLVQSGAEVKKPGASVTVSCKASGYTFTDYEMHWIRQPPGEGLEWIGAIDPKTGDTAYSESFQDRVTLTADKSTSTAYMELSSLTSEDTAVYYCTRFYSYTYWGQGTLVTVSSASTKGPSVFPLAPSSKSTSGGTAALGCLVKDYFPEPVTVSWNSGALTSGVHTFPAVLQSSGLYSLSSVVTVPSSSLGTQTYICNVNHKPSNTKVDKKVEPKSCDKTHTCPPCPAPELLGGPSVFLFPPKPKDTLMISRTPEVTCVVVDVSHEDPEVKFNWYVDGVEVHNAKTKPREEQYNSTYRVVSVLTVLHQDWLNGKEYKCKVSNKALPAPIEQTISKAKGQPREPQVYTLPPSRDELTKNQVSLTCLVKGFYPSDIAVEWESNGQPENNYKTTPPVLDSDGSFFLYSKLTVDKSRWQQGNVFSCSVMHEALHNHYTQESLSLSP
light: B1 light
notes: also called Ho Ab K334_19Q
B19: GpH7-B3 variant I336_03V/GpL16-k0 (antibody, human IgG1, kappa)
heavy: not shown
light: B1 light
notes: also called Ho Ab I336_03V
B20: GpH7-B3 variant E333_09D/GpL16-k0 (antibody, human IgG1, kappa)
heavy: not shown
light: B1 light
notes: also called Ho Ab E333_09D
B21: GpH7-B3 variant H268_02A/GpL16-k0 (antibody, human IgG1, kappa)
heavy: not shown
light: B1 light
notes: also called Ho Ab H268_02A
B22: GpH7-B3 variant E333_08L/GpL16-k0 (antibody, human IgG1, kappa)
heavy: not shown
light: B1 light
notes: also called Ho Ab E333_08L
B23: GpH7-B3 variant S267_10E/GpL16-k0 (antibody, human IgG1, kappa)
heavy: not shown
light: B1 light
notes: also called Ho Ab S267_10E
B24: GpH7-B3 variant I336_18N/GpL16-k0 (antibody, human IgG1, kappa)
heavy: not shown
light: B1 light
notes: also called Ho Ab I336_18N
B25: GpH7-B3 variant S267_09D/GpL16-k0 (antibody, human IgG1, kappa)
heavy: not shown
light: B1 light
notes: also called Ho Ab S267_09D
B26: GpH7-B3 variant E333_04F/GpL16-k0 (antibody, human IgG1, kappa)
heavy: not shown
light: B1 light
notes: also called Ho Ab E333_04F
B27: GpH7-B3 variant G236_03V/GpL16-k0 (antibody, human IgG1, kappa)
heavy: not shown
light: B1 light
notes: also called Ho Ab G236_03V
B28: GpH7-B3 variant L234_20W/GpL16-k0 (antibody, human IgG1, kappa)
heavy: not shown
light: B1 light
notes: also called Ho Ab L234_20W
B29: GpH7-B3 variant G236_04F/GpL16-k0 (antibody, human IgG1, kappa)
heavy: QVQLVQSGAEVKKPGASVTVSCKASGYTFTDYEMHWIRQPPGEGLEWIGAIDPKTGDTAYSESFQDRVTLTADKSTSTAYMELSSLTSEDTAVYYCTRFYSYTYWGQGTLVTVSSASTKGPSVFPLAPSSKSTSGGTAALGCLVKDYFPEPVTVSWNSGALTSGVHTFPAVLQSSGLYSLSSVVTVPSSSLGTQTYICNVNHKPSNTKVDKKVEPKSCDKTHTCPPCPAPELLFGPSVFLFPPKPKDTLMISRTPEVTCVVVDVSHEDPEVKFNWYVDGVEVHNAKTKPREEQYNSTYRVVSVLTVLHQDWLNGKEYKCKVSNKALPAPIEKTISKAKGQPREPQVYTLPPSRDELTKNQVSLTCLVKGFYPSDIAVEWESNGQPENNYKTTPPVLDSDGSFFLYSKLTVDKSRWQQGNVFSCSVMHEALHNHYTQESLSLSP
light: B1 light
notes: also called Ho Ab G236_04F
B30: GpH7-B3 variant K326_01G/GpL16-k0 (antibody, human IgG1, kappa)
heavy: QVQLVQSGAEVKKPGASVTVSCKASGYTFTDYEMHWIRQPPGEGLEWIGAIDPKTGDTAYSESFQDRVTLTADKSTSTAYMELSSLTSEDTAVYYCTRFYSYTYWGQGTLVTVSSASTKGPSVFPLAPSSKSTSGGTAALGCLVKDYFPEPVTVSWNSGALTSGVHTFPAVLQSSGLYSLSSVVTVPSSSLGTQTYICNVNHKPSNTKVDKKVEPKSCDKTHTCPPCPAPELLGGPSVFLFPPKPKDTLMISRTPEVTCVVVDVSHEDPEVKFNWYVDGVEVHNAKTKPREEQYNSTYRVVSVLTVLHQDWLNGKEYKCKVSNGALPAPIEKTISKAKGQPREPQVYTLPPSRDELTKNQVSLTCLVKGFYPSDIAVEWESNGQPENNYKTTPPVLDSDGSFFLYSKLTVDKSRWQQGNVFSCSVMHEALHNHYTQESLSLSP
light: B1 light
notes: also called Ho Ab K326_01G
B31: GpH7-B3 variant K326_07I/GpL16-k0 (antibody, human IgG1, kappa)
heavy: not shown
light: B1 light
notes: also called Ho Ab K326_07I
B32: GpH7-B3 variant G236_07I/GpL16-k0 (antibody, human IgG1, kappa)
heavy: not shown
light: B1 light
notes: also called Ho Ab G236_07I
B33: GpH7-B3 variant Y296_04F/GpL16-k0 (antibody, human IgG1, kappa)
heavy: not shown
light: B1 light
notes: also called Ho Ab Y296_04F
B34: GpH7-B3 variant A330_16H/GpL16-k0 (antibody, human IgG1, kappa)
heavy: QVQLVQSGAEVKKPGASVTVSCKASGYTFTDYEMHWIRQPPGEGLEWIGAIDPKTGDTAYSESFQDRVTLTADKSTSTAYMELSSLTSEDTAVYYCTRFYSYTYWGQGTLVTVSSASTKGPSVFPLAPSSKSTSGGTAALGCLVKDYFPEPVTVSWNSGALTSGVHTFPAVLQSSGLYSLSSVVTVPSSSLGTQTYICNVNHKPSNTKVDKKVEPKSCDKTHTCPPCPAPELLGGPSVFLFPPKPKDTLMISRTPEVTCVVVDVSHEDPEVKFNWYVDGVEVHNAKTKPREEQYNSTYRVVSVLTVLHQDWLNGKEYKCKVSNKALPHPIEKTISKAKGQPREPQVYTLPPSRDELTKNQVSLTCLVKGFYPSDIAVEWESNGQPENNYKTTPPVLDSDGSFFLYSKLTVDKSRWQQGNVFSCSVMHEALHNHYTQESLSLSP
light: B1 light
notes: also called Ho Ab A330_16H
B35: GpH7-B3 variant I336_08L/GpL16-k0 (antibody, human IgG1, kappa)
heavy: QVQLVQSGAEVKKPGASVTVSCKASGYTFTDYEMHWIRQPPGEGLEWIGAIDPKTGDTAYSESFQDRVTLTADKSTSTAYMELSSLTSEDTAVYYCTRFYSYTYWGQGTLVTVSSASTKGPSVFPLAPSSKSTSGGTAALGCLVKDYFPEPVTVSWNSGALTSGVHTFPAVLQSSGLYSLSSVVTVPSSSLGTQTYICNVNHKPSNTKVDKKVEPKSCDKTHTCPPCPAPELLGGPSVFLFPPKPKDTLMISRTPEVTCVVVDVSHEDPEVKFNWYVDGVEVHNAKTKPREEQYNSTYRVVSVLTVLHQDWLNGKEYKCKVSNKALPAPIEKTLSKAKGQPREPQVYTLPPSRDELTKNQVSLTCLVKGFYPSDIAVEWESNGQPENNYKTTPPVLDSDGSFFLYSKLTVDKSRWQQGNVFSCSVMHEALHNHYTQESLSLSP
light: B1 light
notes: also called Ho Ab I336_08L
B36: GpH7-B3 variant L234_04F/GpL16-k0 (antibody, human IgG1, kappa)
heavy: not shown
light: B1 light
notes: also called Ho Ab L234_04F
B37: GpH7-B3 variant S239_08L/GpL16-k0 (antibody, human IgG1, kappa)
heavy: not shown
light: B1 light
notes: also called Ho Ab S239_08L
B38: GpH7-B3 variant K334_13S/GpL16-k0 (antibody, human IgG1, kappa)
heavy: not shown
light: B1 light
notes: also called Ho Ab K334_13S
B39: GpH7-B3 variant H268_19Q/GpL16-k0 (antibody, human IgG1, kappa)
heavy: not shown
light: B1 light
notes: also called Ho Ab H268_19Q
B40: GpH7-B3 variant E333_14T/GpL16-k0 (antibody, human IgG1, kappa)
heavy: not shown
light: B1 light
notes: also called Ho Ab E333_14T
B41: GpH7-B3 variant G236_15Y/GpL16-k0 (antibody, human IgG1, kappa)
heavy: not shown
light: B1 light
notes: also called Ho Ab G236_15Y
B42: GpH7-B3 variant I336_10E/GpL16-k0 (antibody, human IgG1, kappa)
heavy: not shown
light: B1 light
notes: also called Ho Ab I336_10E
B43: GpH7-B3 variant L234_15Y/GpL16-k0 (antibody, human IgG1, kappa)
heavy: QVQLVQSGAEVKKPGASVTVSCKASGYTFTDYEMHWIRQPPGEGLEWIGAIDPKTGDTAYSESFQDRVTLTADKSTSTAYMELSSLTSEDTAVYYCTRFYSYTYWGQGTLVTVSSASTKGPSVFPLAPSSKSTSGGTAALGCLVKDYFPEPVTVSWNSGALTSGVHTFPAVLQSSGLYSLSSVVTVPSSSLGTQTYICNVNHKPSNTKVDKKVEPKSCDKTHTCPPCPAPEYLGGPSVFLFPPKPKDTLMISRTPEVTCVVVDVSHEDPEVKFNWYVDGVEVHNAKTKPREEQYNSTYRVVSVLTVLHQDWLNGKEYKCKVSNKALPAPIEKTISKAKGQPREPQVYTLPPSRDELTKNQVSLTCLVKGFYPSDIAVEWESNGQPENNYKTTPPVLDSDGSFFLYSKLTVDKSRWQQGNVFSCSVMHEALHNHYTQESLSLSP
light: B1 light
notes: also called Ho Ab L234_15Y
B44: GpH7-B3 variant S337_08L/GpL16-k0 (antibody, human IgG1, kappa)
heavy: not shown
light: B1 light
notes: also called Ho Ab S337_08L
B45: GpH7-B3 variant Y296_09D/GpL16-k0 (antibody, human IgG1, kappa)
heavy: not shown
light: B1 light
notes: also called Ho Ab Y296_09D
B46: GpH7-B3 variant G236_14T/GpL16-k0 (antibody, human IgG1, kappa)
heavy: not shown
light: B1 light
notes: also called Ho Ab G236_14T
B47: GpH7-B3 variant H268_18N/GpL16-k0 (antibody, human IgG1, kappa)
heavy: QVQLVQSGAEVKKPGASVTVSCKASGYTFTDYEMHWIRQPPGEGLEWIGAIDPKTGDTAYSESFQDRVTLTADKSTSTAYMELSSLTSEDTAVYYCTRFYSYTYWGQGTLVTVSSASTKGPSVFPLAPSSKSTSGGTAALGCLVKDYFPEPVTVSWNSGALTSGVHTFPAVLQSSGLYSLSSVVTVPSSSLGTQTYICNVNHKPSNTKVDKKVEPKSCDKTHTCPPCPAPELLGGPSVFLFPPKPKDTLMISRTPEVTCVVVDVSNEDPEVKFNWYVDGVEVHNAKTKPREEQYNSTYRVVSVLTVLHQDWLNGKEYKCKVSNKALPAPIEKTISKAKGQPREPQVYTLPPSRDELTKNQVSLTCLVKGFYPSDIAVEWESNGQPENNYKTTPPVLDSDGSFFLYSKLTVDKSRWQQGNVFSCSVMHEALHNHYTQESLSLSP
light: B1 light
notes: also called Ho Ab H268_18N
B48: GpH7-B3 variant A330_19Q/GpL16-k0 (antibody, human IgG1, kappa)
heavy: not shown
light: B1 light
notes: also called Ho Ab A330_19Q
B49: GpH7-B3 variant K326_12R/GpL16-k0 (antibody, human IgG1, kappa)
heavy: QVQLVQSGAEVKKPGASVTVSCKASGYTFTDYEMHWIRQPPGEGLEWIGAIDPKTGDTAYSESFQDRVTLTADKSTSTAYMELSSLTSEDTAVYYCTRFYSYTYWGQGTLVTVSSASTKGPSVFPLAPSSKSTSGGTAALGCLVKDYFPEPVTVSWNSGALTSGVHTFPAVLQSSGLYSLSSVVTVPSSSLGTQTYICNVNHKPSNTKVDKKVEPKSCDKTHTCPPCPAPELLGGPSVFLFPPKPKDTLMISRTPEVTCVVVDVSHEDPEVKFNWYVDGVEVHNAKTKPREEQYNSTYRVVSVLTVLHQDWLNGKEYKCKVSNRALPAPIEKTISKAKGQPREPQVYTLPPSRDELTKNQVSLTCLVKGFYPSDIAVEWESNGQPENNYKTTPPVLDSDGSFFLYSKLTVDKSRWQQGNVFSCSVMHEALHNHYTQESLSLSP
light: B1 light
notes: also called Ho Ab K326_12R
B50: GpH7-B3 variant E333_13S/GpL16-k0 (antibody, human IgG1, kappa)
heavy: not shown
light: B1 light
notes: also called Ho Ab E333_13S
B51: GpH7-B3 variant S239_10E/GpL16-k0 (antibody, human IgG1, kappa)
heavy: not shown
light: B1 light
notes: also called Ho Ab S239_10E
B52: GpH7-B3 variant K326_06M/GpL16-k0 (antibody, human IgG1, kappa)
heavy: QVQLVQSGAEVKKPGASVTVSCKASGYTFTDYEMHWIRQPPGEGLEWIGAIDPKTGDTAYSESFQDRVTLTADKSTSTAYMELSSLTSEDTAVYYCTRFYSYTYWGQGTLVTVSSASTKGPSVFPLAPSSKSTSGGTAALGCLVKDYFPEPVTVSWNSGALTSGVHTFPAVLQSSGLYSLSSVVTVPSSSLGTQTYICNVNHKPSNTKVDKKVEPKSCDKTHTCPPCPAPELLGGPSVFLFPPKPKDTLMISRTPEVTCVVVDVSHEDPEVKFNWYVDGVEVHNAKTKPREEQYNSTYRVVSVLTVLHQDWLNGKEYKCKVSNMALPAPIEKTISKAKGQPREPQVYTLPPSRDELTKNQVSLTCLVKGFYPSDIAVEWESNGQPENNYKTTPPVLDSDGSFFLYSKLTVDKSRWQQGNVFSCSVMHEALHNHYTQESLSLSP
light: B1 light
notes: also called Ho Ab K326_06M

What follows are binders tested against T2, FcγRIa (human, UniProt P12314 16-292) (assay: SPR (Biacore), captured antibody, FcγR as analyte, relative binding).
T2 construct: extracellular domain; Soluble extracellular domain with C-terminal His tag, used as analyte; also called FcgRI; CD64; not shown: His tag at the C terminus
T2 sequence (P12314 16-292): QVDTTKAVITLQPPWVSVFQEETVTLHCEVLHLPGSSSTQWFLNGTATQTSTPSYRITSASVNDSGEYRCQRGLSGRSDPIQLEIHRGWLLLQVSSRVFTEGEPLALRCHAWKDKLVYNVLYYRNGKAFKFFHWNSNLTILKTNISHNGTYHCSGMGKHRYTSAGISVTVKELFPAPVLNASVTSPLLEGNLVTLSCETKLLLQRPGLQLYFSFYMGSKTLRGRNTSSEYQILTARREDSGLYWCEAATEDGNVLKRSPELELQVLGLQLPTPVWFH
Method: The heterodimerized antibodies He Abs in which one of the H chains was introduced with an alteration were assayed for their binding activities to each activating FcγR and inhibitory FcγR according to the method described in Example 4. […] The activating FcγRs in FIGS. 26, 27, 28, and 29 are FcγRIa, FcγRIIa (R), FcγRIIa (H), and FcγRIIIa, respectively.
(§1) Analysis of interaction between objective antibody and the FcγR was carried out using Biacore T100 (GE Healthcare). HBS-EP+ (GE Healthcare) was used as the running buffer, and the measurement temperature was set to 25° C. Chips produced by immobilizing the antigen peptide by the amine coupling method to a Series S Sencor Chip CM5 (GE Healthcare), or alternatively, chips produced by allowing preliminarily biotinylated antigen peptides to interact with and immobilize onto a Series S Sensor Chip SA (certified) (GE Healthcare) were used. Antibodies of interest were captured onto an antigen peptide-immobilized chip, and allowed to interact to each FcγR diluted with running buffer. To regenerate and repeatedly use the chip, the antibodies captured on the chip were washed off by reacting 10 mM glycine-HCl, pH 1.5.

He/Con_1a	Binder
86.7 % of GpH7-A5/GpH7-B3/GpL16-k0	B1

What follows are binders tested against T1, human FcγRIIb extracellular domain with … (assay: SPR (Biacore T100), antibody captured on antigen peptide chip, FcγRIIb as analyte; relative binding).
Method: as §1

He/Con_2b	Binder
108 % of control GpH7-A5/GpH7-B3/GpL16-k0 (=100)	B2
108 % of control GpH7-A5/GpH7-B3/GpL16-k0 (=100)	B3
107 % of control GpH7-A5/GpH7-B3/GpL16-k0 (=100)	B4
114 % of control GpH7-A5/GpH7-B3/GpL16-k0 (=100)	B5
108 % of control GpH7-A5/GpH7-B3/GpL16-k0 (=100)	B6
105 % of control GpH7-A5/GpH7-B3/GpL16-k0 (=100)	B7
104 % of control GpH7-A5/GpH7-B3/GpL16-k0 (=100)	B8
103 % of control GpH7-A5/GpH7-B3/GpL16-k0 (=100)	B9

These binders were tested against FcγRIIa H (human, UniProt P12318 34-217) (assay: SPR Biacore, captured antibody, FcγR analyte; vs GpH7-B3/GpL16-k0 = 100).
Chain of FcγRIIa H (P12318 34-217): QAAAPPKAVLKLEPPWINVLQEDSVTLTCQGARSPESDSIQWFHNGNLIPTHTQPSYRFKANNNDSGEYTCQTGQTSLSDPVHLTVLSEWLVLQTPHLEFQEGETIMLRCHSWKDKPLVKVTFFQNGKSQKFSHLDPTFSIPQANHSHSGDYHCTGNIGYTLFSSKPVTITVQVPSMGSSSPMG

Ho/Con_2aH	Binder
90.1 % of control	B10
94 % of control	B11
98 % of control	B12
98.7 % of control	B13
96.6 % of control	B14
100 % of control	B15
91.5 % of control	B16
85.7 % of control	B17
97.2 % of control	B18
90.4 % of control	B19
103 % of control	B20
111 % of control	B21
96.5 % of control	B22
98.5 % of control	B23
94.3 % of control	B24
91.5 % of control	B25
93.6 % of control	B26
111 % of control	B27
55.3 % of control	B28
63.2 % of control	B29
98.2 % of control	B30
78.1 % of control	B31

Ho/Con_2aH	Binder
101 % of control	B32
95 % of control	B33
101 % of control	B34
101 % of control	B35
54.2 % of control	B36
87 % of control	B37
94.9 % of control	B38
102 % of control	B39
90.4 % of control	B40
80.4 % of control	B41
93.4 % of control	B42
43.8 % of control	B43
93.1 % of control	B44
99.9 % of control	B45
94.2 % of control	B46
110 % of control	B47
99.2 % of control	B48
98.8 % of control	B49
94.6 % of control	B50
91.4 % of control	B51
101 % of control	B52
